The target of assay [1] is human serum albumin (HSA) (human). Description: SPR Biacore T200, fusion protein captured by anti-VHH antibody, albumin as analyte. The method, then: (§1) Coupling of an anti-VHH antibody (MonoRab™ Rabbit Anti-Camelid VHH Cocktail, Genescript, Cat No. A02014) to an S series CM5 sensor chip (GE, Cat No. 29-1049-88) was performed using an amino coupling kit (GE, Cat No. BR-1000-50). The antibody was diluted to 10 μg/mL with 10 mM sodium acetate (pH 4.5) (GE, Cat No. BR-1003-50). After the CM5 chip was activated with EDC/NHS, the diluted anti-VHH antibody was flowed over the chip to reach a surface response value of about 5000 RU, and then the chip was blocked with ethanolamine for later use.
(§2) The albumin from each species was serially diluted in a gradient with 1XHBS-EP (10 mM HEPES, pH 7.4, 150 mM NaCl, 3 mM EDTA, 0.05% Surfactant P20). The test fusion protein molecule was captured using the anti-VHH antibody-coupled chip, with a response value of about 30 RU. Then, different concentrations of serum albumin were flowed over the surface of the chip for 3 min at a flow rate of 50 μL/min, with a dissociation time of 1-10 min (the dissociation time varied depending on the species of albumin). After the end of each cycle, the chip was regenerated using 10 mM glycine-hydrochloric acid (pH 1.5) (GE, Cat No. BR-1003-54). The reaction signals were detected in real-time using Biacore T200 (GE) to obtain the association and dissociation curves, and the data obtained were fitted with a Langmuir 1:1 binding model using the BIAevaluation version 4.1 software at appropriate concentration points to obtain the affinity values.
For orientation: Surface plasmon resonance follows binding to a sensor surface in real time, without labels.

Assay [2] deals with T1, rat serum albumin (rat).
T1 chain: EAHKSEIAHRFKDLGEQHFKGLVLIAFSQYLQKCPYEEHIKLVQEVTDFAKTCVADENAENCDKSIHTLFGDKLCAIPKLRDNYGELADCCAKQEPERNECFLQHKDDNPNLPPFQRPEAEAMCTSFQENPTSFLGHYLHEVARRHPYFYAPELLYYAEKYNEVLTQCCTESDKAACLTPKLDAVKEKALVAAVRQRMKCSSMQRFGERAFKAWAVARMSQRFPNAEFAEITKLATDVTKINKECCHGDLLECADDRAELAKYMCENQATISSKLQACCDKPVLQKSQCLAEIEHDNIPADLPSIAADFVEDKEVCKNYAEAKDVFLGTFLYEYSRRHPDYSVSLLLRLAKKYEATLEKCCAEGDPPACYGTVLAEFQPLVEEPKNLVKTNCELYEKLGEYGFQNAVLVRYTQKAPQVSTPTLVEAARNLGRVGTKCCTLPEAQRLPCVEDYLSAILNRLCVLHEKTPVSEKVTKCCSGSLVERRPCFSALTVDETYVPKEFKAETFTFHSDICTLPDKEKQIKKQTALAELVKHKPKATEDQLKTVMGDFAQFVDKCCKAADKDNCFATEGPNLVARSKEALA
The assay is described as above. The method, then:
as §1, §2

In assay [3] the target is T2, cynomolgus monkey RXFP1 receptor (cynomolgus monkey, UniProt H9ERA2 1-757 (rhesus entry)).
T2 sequence: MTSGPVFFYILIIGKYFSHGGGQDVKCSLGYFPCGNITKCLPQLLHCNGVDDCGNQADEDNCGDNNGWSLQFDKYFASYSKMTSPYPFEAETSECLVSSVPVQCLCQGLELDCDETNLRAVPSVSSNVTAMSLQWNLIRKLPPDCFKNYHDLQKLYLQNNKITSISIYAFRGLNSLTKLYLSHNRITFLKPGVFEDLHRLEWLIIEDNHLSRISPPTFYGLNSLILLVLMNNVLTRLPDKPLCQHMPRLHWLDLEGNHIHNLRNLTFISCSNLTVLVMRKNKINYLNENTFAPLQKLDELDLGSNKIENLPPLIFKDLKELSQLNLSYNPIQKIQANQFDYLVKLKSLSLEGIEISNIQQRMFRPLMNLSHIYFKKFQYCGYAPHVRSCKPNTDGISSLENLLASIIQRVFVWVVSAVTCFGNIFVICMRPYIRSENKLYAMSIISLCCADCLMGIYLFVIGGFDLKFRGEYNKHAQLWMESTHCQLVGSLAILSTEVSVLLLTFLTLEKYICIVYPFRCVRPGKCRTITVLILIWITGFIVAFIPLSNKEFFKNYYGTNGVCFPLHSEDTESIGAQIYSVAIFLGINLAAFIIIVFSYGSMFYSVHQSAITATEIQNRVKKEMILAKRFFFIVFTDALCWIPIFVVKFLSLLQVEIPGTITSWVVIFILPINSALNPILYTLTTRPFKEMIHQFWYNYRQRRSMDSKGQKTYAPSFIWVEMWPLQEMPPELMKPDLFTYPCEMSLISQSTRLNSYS
Description: cell-based or functional assay.

For assay [4], the target named is T3, rat RXFP1 receptor (rat, UniProt Q6R6I6 1-758).
T3 sequence (looked up): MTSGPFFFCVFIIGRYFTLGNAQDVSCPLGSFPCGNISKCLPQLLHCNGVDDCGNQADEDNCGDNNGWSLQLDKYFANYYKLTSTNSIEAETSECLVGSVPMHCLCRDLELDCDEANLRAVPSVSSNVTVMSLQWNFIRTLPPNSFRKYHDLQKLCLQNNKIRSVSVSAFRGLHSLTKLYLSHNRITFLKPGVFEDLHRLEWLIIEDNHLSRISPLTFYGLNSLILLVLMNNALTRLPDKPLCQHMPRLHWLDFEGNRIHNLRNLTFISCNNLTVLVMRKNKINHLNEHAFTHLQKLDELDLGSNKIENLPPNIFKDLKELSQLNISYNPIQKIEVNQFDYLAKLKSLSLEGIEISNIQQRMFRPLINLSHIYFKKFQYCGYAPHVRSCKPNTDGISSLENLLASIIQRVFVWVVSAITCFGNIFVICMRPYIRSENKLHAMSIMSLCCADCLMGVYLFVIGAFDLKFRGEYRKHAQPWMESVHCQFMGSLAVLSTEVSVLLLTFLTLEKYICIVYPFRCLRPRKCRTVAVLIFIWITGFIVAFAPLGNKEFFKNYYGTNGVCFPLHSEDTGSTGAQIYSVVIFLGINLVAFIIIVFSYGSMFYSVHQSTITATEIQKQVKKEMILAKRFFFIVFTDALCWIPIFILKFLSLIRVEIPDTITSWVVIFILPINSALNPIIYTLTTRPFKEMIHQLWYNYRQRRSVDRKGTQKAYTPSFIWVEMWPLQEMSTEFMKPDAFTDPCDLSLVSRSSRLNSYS
Kind of assay: cell-based or functional assay.

B1: 0051 (other)
chain: EVQLLESGGGLVQPGGSLRLSCAASGFTFLTSCMGWFRQAPGKEREGVSSIYTVGGSTFYTNSVKGRFTISRDNSKNTLYLQMNSLRAEDTAVYYCAAGSPARCRLRDPTTFDYWGQGTLVTVSSGGGGQGGGGQGGGGQGGGGQGGGGQSWMEEVIKLCGRELVRAQIAICGMSTWSGGGSGGSGGGQLYSALANKCCHVGCTKRSLARFC
notes: Single-chain fusion: anti-HSA VHH, linker, relaxin-2 B chain, linker, relaxin-2 A chain; also called fusion protein 0051; molecule 0051
As for B1, the Kd – broadly, the concentration at which binding is half-saturated – in assay [1] amounted to 20.2 nM; in assay [2] it was 156 nM. The values for the koff in assay [1] and in assay [2] were 0.0011 s⁻¹ and 0.00581 s⁻¹, respectively. Moreover, the kon (commonly the rate constant with which the complex forms) in assay [1] worked out at 54500 M⁻¹ s⁻¹; in assay [2] it was 37200 M⁻¹ s⁻¹. Also, the “EC50 (nM), cAMP production in CHO-K1 cells with receptor overexpression” value in assay [3] turned out to be 25.1 nM; in assay [4], 21.1 nM.

The record behind these values is patent publication US20250312444A1 (BEIJING TUO JIE BIOPHARMACEUTICAL, published 2025).
